# Reference: patent US8501426B2, “Method for identifying protease inhibitors” (priority 2006, dated 2013)
# [ ]: non-standard residue; d: D form. The star is where a group is joined. FITC = O=C1OC2(c3ccc(O)cc3Oc3cc(O)ccc32)c2ccc(NC(=S)*)cc21; Abu = CC[C@H](N)C(=O)O; Ahx = NCCCCCC(=O)O
# What was measured:
# HCV NS3•4A = biological target: T1, HCV NS3•4A (Hepatitis C virus genotype 1a, UniProt P27958); test: HCV NS3 peptide cleavage assay with full-length NS3•4A (determination of Km and Vmax); type: biochemical, HCV sub-type strain 1a; conditions: enzyme NS3•4A; peptide substrate varied 3 μM to 200 μM; 25 μM NS4A peptide; reverse phase HPLC
# T1 construct: hexa-histidine (N); made in house; host or cells: Sf9 insect cells (recombinant baculovirus, pVL1392-His-NS3•4A)
# Protocol: (§1) This assay follows the cleavage of a peptide substrate by full-length hepatitis C viral protein NS3•4A. One of three peptide substrates based on the NS5A/NS5B cleavage site for genotype 1a HCV, shown in table 3 below, is used to measure enzyme activity. All substrate stock solutions (25 mM) were prepared in DMSO containing 0.2 M DTT and stored at −20° C. A synthetic peptide cofactor (NS4A Peptide) was used to supplement NS4A. The hydrolysis reaction was performed in a 96-well microtiter plate format using 100 ηM to 125 ηM HCV NS3•4A in buffer containing 50 mM HEPES pH 7.8, 100 mM NaCl, 20% glycerol, 5 mM DTT and 25 μM NS4A peptide. The final DMSO concentration was no greater than 2% v/v. Reactions using NS5AB or NS5AB-EDANS as substrate were quenched by the addition of 10% trifluoroacetic acid (TFA) to yield a final TFA concentration of 2.5%. Reactions using FITC-NS5AB-1 as substrate were quenched by the addition of 0.4 M formic acid to yield a final concentration of 0.08 M acid.
# (§2) Enzymatic activity was assessed by separation of substrate and products using reverse phase HPLC. The instrument used was an Agilent 1100 with a G1322A degasser, either a G1312A binary pump or a G1311A quaternary pump, a G1313A autosampler, a G1316A column thermostated chamber, a G1321A fluorescence detector and a G1315A diode array detector. The column thermostat was at 40° C. […] The C-terminal product peak (NH2-SMSY-COOH) was quantified using the absorbance data collected at 210 ηm. […] The C-terminal product peak (NH2-SMSYT-Asp(EDANS)-KKK-COOH) was quantified using the fluorescence data collected at 350 ηm excitation/490 ηm emission. […] The N-terminal product peak (FITC-Ahx-EDVV-(alpha)Abu-C-COOH) was quantified using the fluorescence data collected at 440 ηm excitation/520 ηm emission. Alternatively, the ratio of N-terminal product to unreacted FITC-NS5AB-1 substrate was determined using a Caliper LabChip 3000 with detection at 488 ηm excitation/530 ηm emission, using a chip buffer of 100 mM Tris pH 7.0, 10 mM EDTA, 0.01% (v/v) Brij-35, and 0.1% (v/v) CR-3. […]
# [1] = system: CC[C@H](NC(=O)[C@@H](NC(=O)[C@@H](NC(=O)[C@H](CC(=O)O)NC(=O)[C@@H](N)CCC(=O)O)C(C)C)C(C)C)C(=O)N[C@@H](CS)C(=O)N[C@@H](CO)C(=O)N[C@@H](CCSC)C(=O)N[C@@H](CO)C(=O)N[C@@H](Cc1ccc(O)cc1)C(=O)O; test: HCV NS3 protease domain peptide cleavage assay (determination of Km and Vmax); type: biochemical; conditions: other: enzyme NS3 Protease Domain; peptide substrate varied 3 μM to 200 μM; 25 μM KK4A cofactor; reverse phase HPLC; pH 7.8; 40.0 °C
# Protocol: This assay is a modification of that described by Landro, et al. (Landro J A, Raybuck S A, Luong Y C, O'Malley E T, Harbeson S L, Morgenstern K A, Rao G and Livingston D L. Biochemistry 1997, 36, 9340-9348), and uses a peptide substrate (NS5AB), based on the NS5A/NS5B cleavage site for genotype 1a HCV. The substrate stock solution (25 mM) was prepared in DMSO containing 0.2 M DTT and stored at −20° C. A synthetic peptide cofactor (KK4A) was used as a substitute for the central core region of NS4A. The reaction was performed in a 96-well microtiter plate format using 25 ηM to 50 ηM HCV NS3 protease domain in buffer containing 50 mM HEPES pH 7.8, 100 mM NaCl, 20% glycerol, 5 mM DTT and 25 μM KK4A. The final DMSO concentration was no greater than 2% v/v. […]
# The SMSY product was separated from substrate and KK4A using a microbore separation method. […] The SMSY product peak was quantified using the data collected at […].
# To determine the kinetic parameters Km and Vmax, the HCV NS3 protease domain or HCV NS3•4A was reacted with peptide substrate under the assay conditions described above. […] The ratio of the product peak area (as determined by reverse phase HPLC) to the reaction time yielded a rate of enzyme catalyzed hydrolysis. […] The value of kcat was determined from Vmax using the nominal protease concentration and a fully cleaved substrate peptide as an instrument calibration standard.
# [2] = system: CC[C@H](NC(=O)[C@@H](NC(=O)[C@@H](NC(=O)[C@H](CC(=O)O)NC(=O)[C@@H](N)CCC(=O)O)C(C)C)C(C)C)C(=O)N[C@@H](CS)C(=O)N[C@@H](CO)C(=O)N[C@@H](CCSC)C(=O)N[C@@H](CO)C(=O)N[C@@H](Cc1ccc(O)cc1)C(=O)O; test: HCV NS3 peptide cleavage assay with full-length NS3•4A (determination of Km and Vmax); type: biochemical, HCV sub-type strain 1a; conditions: other: enzyme NS3•4A; peptide substrate varied 3 μM to 200 μM; 25 μM NS4A peptide; reverse phase HPLC; 40.0 °C
# Protocol: as §1, §2
substance,measurement,setting,value
"FITC-Ahx-EDVV-(alpha)Abu-CSMSYTKK-NH2 ({FITC}-[Ahx]EDVV[Abu]CSMSYTKK-NH2) [FITC-NS5AB-1, FITC-labelled peptide substrate based on the NS5A/NS5B cleavage site for genotype 1a HCV]",Km,HCV NS3•4A,15 µM
HCV NS3 protease domain (Hepatitis C virus (isolate Con1)),Km,[1],25 µM
same,kcat/Km,[1],30000 M⁻¹ s⁻¹
HCV NS3•4A (Hepatitis C virus (isolate H77)),Km,[2],30 µM
same,kcat/Km,[2],7900 M⁻¹ s⁻¹
